Reference: IntAct's records for PubMed 23217712

Columns and labels:
clg1_yeast CLG1 = clg1_yeast CLG1 (UniProt P35190)
pcl2_yeast PCL2 = pcl2_yeast PCL2 (UniProt P25693)
cg13_yeast CLN3 = cg13_yeast CLN3 (UniProt P13365)
cg13_yeast CLN3, sequence (P13365 whole entry): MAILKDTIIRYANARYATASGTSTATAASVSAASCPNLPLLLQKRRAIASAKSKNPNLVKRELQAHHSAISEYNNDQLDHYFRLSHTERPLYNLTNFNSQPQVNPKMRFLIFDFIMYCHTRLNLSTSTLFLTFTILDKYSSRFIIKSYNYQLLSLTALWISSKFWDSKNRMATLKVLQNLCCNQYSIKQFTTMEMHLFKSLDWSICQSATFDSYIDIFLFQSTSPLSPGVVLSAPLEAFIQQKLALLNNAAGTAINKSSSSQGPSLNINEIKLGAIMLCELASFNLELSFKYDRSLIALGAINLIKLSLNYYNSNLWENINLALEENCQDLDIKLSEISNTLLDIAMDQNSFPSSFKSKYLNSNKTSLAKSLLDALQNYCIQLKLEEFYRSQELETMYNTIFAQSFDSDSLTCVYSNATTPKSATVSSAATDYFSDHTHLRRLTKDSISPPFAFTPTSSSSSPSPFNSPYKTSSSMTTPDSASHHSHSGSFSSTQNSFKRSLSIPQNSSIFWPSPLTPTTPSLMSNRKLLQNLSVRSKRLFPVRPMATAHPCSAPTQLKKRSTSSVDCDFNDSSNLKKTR

clg1_yeast CLG1, sequence (P35190 whole entry): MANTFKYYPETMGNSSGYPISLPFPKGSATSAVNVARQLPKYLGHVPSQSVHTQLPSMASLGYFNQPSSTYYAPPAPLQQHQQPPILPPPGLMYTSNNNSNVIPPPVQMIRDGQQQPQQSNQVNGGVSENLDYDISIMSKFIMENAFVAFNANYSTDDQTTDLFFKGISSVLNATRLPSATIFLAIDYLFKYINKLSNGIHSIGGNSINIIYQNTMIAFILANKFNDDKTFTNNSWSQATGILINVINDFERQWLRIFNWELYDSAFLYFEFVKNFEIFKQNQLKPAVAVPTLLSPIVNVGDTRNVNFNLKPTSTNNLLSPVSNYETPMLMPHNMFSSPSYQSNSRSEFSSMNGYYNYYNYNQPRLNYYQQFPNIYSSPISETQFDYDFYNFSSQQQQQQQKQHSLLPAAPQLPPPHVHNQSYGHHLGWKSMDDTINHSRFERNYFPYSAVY
pcl2_yeast PCL2, sequence (P25693 whole entry): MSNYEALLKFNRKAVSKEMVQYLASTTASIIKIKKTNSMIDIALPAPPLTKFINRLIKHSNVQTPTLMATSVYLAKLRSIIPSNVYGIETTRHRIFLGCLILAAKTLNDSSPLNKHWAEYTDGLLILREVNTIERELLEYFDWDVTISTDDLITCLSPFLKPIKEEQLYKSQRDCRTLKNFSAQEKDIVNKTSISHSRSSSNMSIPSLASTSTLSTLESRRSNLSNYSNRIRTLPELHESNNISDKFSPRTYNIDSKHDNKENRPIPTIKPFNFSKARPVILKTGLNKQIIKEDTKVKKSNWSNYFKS

Substance | effect of a mutation on the interaction (clg1_yeast CLG1) | effect of a mutation on the interaction (pcl2_yeast PCL2) | effect of a mutation on the interaction (cg13_yeast CLN3)
Heat shock protein SSA1 (Saccharomyces cerevisiae), P10591 T36E | decreasing interaction strength | decreasing interaction strength | –
Heat shock protein SSA1 (Saccharomyces cerevisiae), P10591 T36A | increasing interaction strength | increasing interaction strength | disrupting interaction strength
